The values below come from publication PMC4461284, “Different Modes of Transactivation of Bacteriophage Mu Late Promoters by Transcription Factor C”.

The series has as its target RNA polymerase (RNAP), WT (E. coli, UniProt P0A7Z4;P0A8V2;P0A8T7;P0A800;P00579 1-329;1-1342;1-1407;2-91;1-613). The series is described as follows: EMSA; no C protein; on ice (closed complex); EMSA: on ice 10 min, 3.5% native PAGE at 4 C; binding buffer not stated (transcription buffer: 40 mM Tris-Cl pH 8.0, 5 mM Mg acetate, 0.1 mM EDTA, 0.1 mM DTT, 100 mM KCl, 100 ug/ml BSA). Conditions: protein: recombinant, (Ni-NTA purified), chain copies: 2;1;1;1;1, label: 5' 32P. On the technique in general: A gel shift assay detects complexes by their altered migration in electrophoresis.

[1] abbreviates: 5' overhangs 4 nt (EcoRI AATT / BamHI GATC).

B1: P promoter 92mer (dsDNA)
DNA 1: AATTCACAGGGACAGTTACAGTTAACTGCCATAACCCCGGACGGCGGCTTTTCACAGGTATCCTTTTCAGACAGTGGTACAGCCACGCCCCG
DNA 2: GATCCGGGGCGTGGCTGTACCACTGTCTGAAAAGGATACCTGTGAAAAGCCGCCGTCCGGGGTTATGGCAGTTAACTGTAACTGTCCCTGTG
As to B1, the binding result under setting [1] is “binds”.

B2: lys promoter 92mer (dsDNA)
DNA 1: AATTCATCCTGCCGGTTATTTCCTGTCACCATAATCCCGCACCTGCCACCTGATTTTTTAGACTGCCATCAGAGAATTTTTTCAGGGAAGCG
DNA 2: GATCCGCTTCCCTGAAAAAATTCTCTGATGGCAGTCTAAAAAATCAGGTGGCAGGTGCGGGATTATGGTGACAGGAAATAACCGGCAGGATG
Turning to B2, the binding result under setting [1] is “binds”.

B3: tin7 P2-disrupted promoter 78mer (dsDNA)
DNA 1: AATTCCGGTTGCGCCCCAATAACCACACTCAACCCATGATGTTTGTTAAGATAGTGGCGAATTGATGCAAAGGAGGTG
DNA 2: GATCCACCTCCTTTGCATCAATTCGCCACTATCTTAACAAACATCATGGGTTGAGTGTGTGGTTATTGGGGCGCAACCGGG
For the molecule B3, for the setting “5' overhangs (EcoRI AATT / BamHI GATC)”, the binding result is listed as “binds”.

B4: I promoter 92mer (dsDNA)
DNA 1: AATTCTTTCTTTCTCCAGTACTCAAATAGCATAACCCCAGATTTTCCCGCACCTCCCGCAAACTGACTGCTCACAAACCATGATGAGCAGCGG
DNA 2: GATCCCGCTGCTCATCATGGTTTGTGAGCAGTCAGTTTGCGGGAGGTGCGGGAAAATCTGGGGTTATGCTATTTGAGTACTGGAGAAAGAAAG
Take B4: the binding result under setting [1] is “binds”.
